Paper PMC7534572

Key:
[1] = biological target: HpiI (Hymenoscyphus scutula); experiment: crystal structure
[2] = biological target: PdxI (Aspergillus bombycis); experiment: crystal structure

| Substance | stoichiometry N [1] | stoichiometry N [2] |
| --- | --- | --- |
| HpiI (enzyme) | 2 | – |
| PdxI (enzyme) | – | 2 |
